Data published in patent US20210395318A1.
Values joined by “and” are separate entries in the source; they are usually repeats but may differ in a detail not shown here. Equal values may be shown once.

Molecular target: human CD40 on primary human B cells or human monocyte-derived dendritic cells (human) (UniProt P25942)
Experiment: cell-based or functional assay

Sequence of human CD40 on primary human B cells or human monocyte-derived dendritic cells (human) (P25942 21-277 H80K/K81H limits assumed): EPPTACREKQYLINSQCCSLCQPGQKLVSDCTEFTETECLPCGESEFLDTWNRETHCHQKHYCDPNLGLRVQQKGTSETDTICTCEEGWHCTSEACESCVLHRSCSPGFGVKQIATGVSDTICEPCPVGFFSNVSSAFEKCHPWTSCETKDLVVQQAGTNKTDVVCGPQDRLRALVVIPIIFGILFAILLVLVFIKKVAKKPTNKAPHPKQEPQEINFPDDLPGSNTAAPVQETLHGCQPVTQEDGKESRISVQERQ

EC50, % CD86, human B cells with FAP-CHO cells, w HSA: 0.88 nM and 0.3 nM
EC50, % CD86, human B cells with FAP-CHO cells, w/o HSA: 1.9 nM and 0.51 nM
EC50, MFI CD86, human B cells with FAP-CHO cells, w HSA: 0.51 nM and 2.05 nM
EC50, MFI CD86, human B cells with FAP-CHO cells, w/o HSA: 1.13 nM and 4.73 nM
Efficacy [MFI at highest dose], MFI CD86, human B cells with FAP-CHO cells, w HSA: 1530 MFI and 1870 MFI
Efficacy [MFI at highest dose], MFI CD86, human B cells with FAP-CHO cells, w/o HSA: 1340 MFI and 2060 MFI
Efficacy [MFI at highest dose], MFI CD86, human B cells with WT-CHO cells (no FAP), w HSA: 1900 MFI and 1470 MFI
Efficacy [MFI at highest dose], MFI CD86, human B cells with WT-CHO cells (no FAP), w/o HSA: 2050 MFI and 1390 MFI
Substance: anti-CD40 monoclonal antibody (corresponds to sequence 21.4.1 of U.S. Pat. No. 7,338,660 B2)
